Experimental data as given in patent publication US20260078416A1, “ORTHOGONAL METABOLIC FRAMEWORK FOR ONE-CARBON UTILIZATION” (Mojia Biotech Pte. Ltd., priority 2021, published 2026).

System: formaldehyde
Assay: Cell-free prototyping of the α-reduction FORCE pathway with E. coli cell extracts
Format: biochemical
Conditions: 50 mM formaldehyde
Description: A cell-free metabolic engineering approach was used to further prototype the FORCE pathways for product synthesis. […] As shown in FIG. 2 (in the formyl-CoA elongation panel), outside of the direct generation of 2-hydroxycarboxylates (e.g. glycolate) via thioester cleavage of the 2-hydroxyacyl-CoA generated by HACL, other C2 products, (including the aldose or aldehyde elongation pathways) require reduction of this 2-hydroxyacyl-CoA (glycolyl-CoA in the case of formaldehyde and formyl-CoA ligation). Listeria monocytogenes ACR (LmACR) are also able to act upon glycolaldehyde. […] With the inclusion of the previously identified HACL from Rhodospirillales bacterium URHD0017 (RuHACL), glycolate was observed.
Upon further addition of E. coli cell extract expressing diol dehydratase (DDR) from Klebsiella oxytoca, along with coenzyme B12, ethanol was detected (1.90±0.03 mM at one hour: FIG. 5b), likely due to the reduction of acetaldehyde by endogenous oxidoreductases, along with a corresponding decrease in ethylene glycol. […]
Enzyme expression and cell extract preparation was performed as described previously. […] Samples were centrifuged at 20817×g for 15 minutes and the supernatant analyzed by HPLC as described previously.

B1: E. coli FucO: E. coli 1,2-diol oxidoreductase, added as cell extract (protein, UniProt P0A9S1 1-382, looked up)
Lactaldehyde reductase: MANRMILNETAWFGRGAVGALTDEVKRRGYQKALIVTDKTLVQCGVVAKVTDKMDAAGLAWAIYDGVVPNPTITVVKEGLGVFQNSGADYLIAIGGGSPQDTCKAIGIISNNPEFADVRSLEGLSPTNKPSVPILAIPTTAGTAAEVTINYVITDEEKRRKFVCVDPHDIPQVAFIDADMMDGMPPALKAATGVDALTHAIEGYITRGAWALTDALHIKAIEIIAGALRGSVAGDKDAGEEMALGQYVAGMGFSNVGLGLVHGMAHPLGAFYNTPHGVANAILLPHVMRYNADFTGEKYRDIARVMGVKVEGMSLEEARNAAVEAVFALNRDVGIPPHLRDVGVRKEDIPALAQAALDDVCTGGNPREATLEDIVELYHTAW
modifications: added as cell extract
notes: E. coli 1,2-diol oxidoreductase, added as cell extract
ethylene glycol synthesis (extract added to LmACR and RuHACL extracts): 2.73 ± 0.03 mM | increase in ethylene glycol (vs without the added extract): 2 fold
